15 variants from the RNAGym collection of RNA variant scans (doi:10.1093/molbev/msab373) can be followed below.

Sequences and labels used below:
B1: Azoarcus group I ribozyme (parent)
chain: GUGCCUUGCGCCGGGAAACCACGCAAGGGAUGGUGUCAAAUUCGGCGAAACCUAAGCGCCCGCCCGGGCGUAUGGCAACGCCGAGCCAAGCUUCGGCGCCUGCGCCGAUGAAGGUGUAGAGACUAGACGGCACCCACCUAAGGCAAACGCUAUGGUGAAGGCAUAGUCCAGGGAGUGGCGAAAGUCACACAAACCGG

In the series the parent is B1. Briefly: reverse-splicing fitness (ratio to wild type); higher = more active; in vitro selection; Mg2+ level not given. Put shortly:
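An in vitro group I ribozyme library with randomized positions was T7-transcribed and gel-purified. In triplicate, 10 pmol RNA in EPPS pH 7.5 was reacted with 50 pmoles of a 30-nt RNA substrate for 1 h at 37 °C across several added MgCl2 levels (1–48 mM), then stopped with EDTA. Products were reverse transcribed from a substrate-complementary primer, PCR-amplified and sequenced (HiSeq 4000). Fitness is a variant's read proportion after selection over that before, normalised to wild type.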
For the variant GUGCCUUGCGCCGGGAAACCACGCAAGGGAUGGUGUCAAAUUCGGCGAAACCUAAGCGCCCGCCCGGGCGUAUGGCAACGCCGAGCCAAGCUUCGGCGCCUGCGCCGAUGCAGGUGUAGAGACUAGACGGCACCCACCUAAGGCUAACGGUAUGGUGAAGGCAUAGUCCAGGGAGUGGCGAAAGUCACACAAACCGG [A111C A145U C150G], the reverse-splicing fitness amounted to 0.219. The same measure for GUGCCUUGCGCCGGGAAACCACGCAAGGGAUGGUGUCAAAUUCGGCGAAACCUAAGCGCCCGCCCGGGCGUAUGGCAACGCAGAGCCAAGCUUCGGCGCCUGCGCCGAUGUAGGUGUAGAGACUAGACGGCACCCACCUAAGGCAAACGCUAUGGUGAAGGCAUAGUCAAGGGAGCGGCGAAAGUCACACAAACCGG [C82A A111U C169A U176C]: 0.0202; for GUGCCUUGCGCCGGGAAACCACGCAAGGGAUGGUGUCAAAUUCGGCGAAACCUAAGCGCCCGCCCGGGCGUAUGGCAACGCGGAGCCAAGCUUCGGCGCCUGCGCCGAUGGAGGUGUAGUGACUAGACGGCACCCACCUAAGGCGAACGUUAUGGUGAAGGCAUAGUCCAGGGAGUGGCGAAAGUCACACAAACCGG [C82G A111G A120U A145G C150U]: 0.0498; for GUGCCUUGCGCCGGGAAACCACGCAAGGGAUGGUGUCAAAUUCGGCGAAACCUAAGCGCCCGCCCGGGCGUAUGGCAACGCAGAGCCAAGCUUCGGCGCCUGCGCCGAUGAAGGUGUAGAGACUAGACGGCACCCACCUAAGGCUAACGUUAUGGUGAAGGCAUAGUCAAGGGAGAGGCGAAAGUCACACAAACCGG [C82A A145U C150U C169A U176A]: 0.0121.

GUGCCUUGCGCCGGGAAACCACGCAAGGGAUGGUGUCAAAUUCGGCGAAACCUAAGCGCCCGCCCGGGCGUAUGGCAACGCGGAGCCAAGCUUCGGCGCCUGCGCCGAUGCAGGUGUAGUGACUAGACGGCACCCACCUAAGGCUAACGUUAUGGUGAAGGCAUAGUCGAGGGAGUGGCGAAAGUCACACAAACCGG [C82G A111C A120U A145U C150U C169G]: the reverse-splicing fitness was 0.00403.

Take GUGCCUUGCGCCGGGAAACCACGCAAGGGAUGGUGUCAAAUUCGGCGAAACCUAAGCGCCCGCCCGGGCGUAUGGCAACGCUGAGCCAAGCUUCGGCGCCUGCGCCGAUGCAGGUGUAGCGACUAGACGGCACCCACCUAAGGCCAACGCUAUGGUGAAGGCAUAGUCGAGGGAGCGGCGAAAGUCACACAAACCGG [C82U A111C A120C A145C C169G U176C]: the reverse-splicing fitness was found to be 0.015. The same measure for GUGCCUUGCGCCGGGAAACCACGCAAGGGAUGGUGUCAAAUUCGGCGAAACCUAAGCGCCCGCCCGGGCGUAUGGCAACGCUGAGCCAAGCUUCGGCGCCUGCGCCGAUGGAGGUGUAGUGACUAGACGGCACCCACCUAAGGCGAACGUUAUGGUGAAGGCAUAGUCUAGGGAGUGGCGAAAGUCACACAAACCGG [C82U A111G A120U A145G C150U C169U]: 0.00469. With GUGCCUUGCGCCGGGAAACCACGCAAGGGAUGGUGUCAAAUUCGGCGAAACCUAAGCGCCCGCCCGGGCGUAUGGCAACGCUGAGCCAAGCUUCGGCGCCUGCGCCGAUGCAGGUGUAGAGACUAGACGGCACCCACCUAAGGCCAACGUUAUGGUGAAGGCAUAGUCUAGGGAGGGGCGAAAGUCACACAAACCGG [C82U A111C A145C C150U C169U U176G] the figure was 0.00631. With GUGCCUUGCGCCGGGAAACCACGCAAGGGAUGGUGUCAAAUUCGGCGAAACCUAAGCGCCCGCCCGGGCGUAUGGCAACGCGGAGCCAAGCUUCGGCGCCUGCGCCGAUGGAGGUGUAGCGACUAGACGGCACCCACCUAAGGCUAACGUUAUGGUGAAGGCAUAGUCCAGGGAGAGGCGAAAGUCACACAAACCGG [C82G A111G A120C A145U C150U U176A] the figure was 0.0202; with GUGCCUUGCGCCGGGAAACCACGCAAGGGAUGGUGUCAAAUUCGGCGAAACCUAAGCGCCCGCCCGGGCGUAUGGCAACGCCGAGCCAAGCUUCGGCGCCUGCGCCGAUGAAGGUGUAGGGACUAGACGGCACCCACCUAAGGCUAACGUUAUGGUGAAGGCAUAGUCUAGGGAGUGGCGAAAGUCACACAAACCGG [A120G A145U C150U C169U], 0.33; with GUGCCUUGCGCCGGGAAACCACGCAAGGGAUGGUGUCAAAUUCGGCGAAACCUAAGCGCCCGCCCGGGCGUAUGGCAACGCUGAGCCAAGCUUCGGCGCCUGCGCCGAUGCAGGUGUAGGGACUAGACGGCACCCACCUAAGGCCAACGCUAUGGUGAAGGCAUAGUCCAGGGAGCGGCGAAAGUCACACAAACCGG [C82U A111C A120G A145C U176C], 0.0128.

With GUGCCUUGCGCCGGGAAACCACGCAAGGGAUGGUGUCAAAUUCGGCGAAACCUAAGCGCCCGCCCGGGCGUAUGGCAACGCAGAGCCAAGCUUCGGCGCCUGCGCCGAUGGAGGUGUAGGGACUAGACGGCACCCACCUAAGGCGAACGGUAUGGUGAAGGCAUAGUCGAGGGAGAGGCGAAAGUCACACAAACCGG [C82A A111G A120G A145G C150G C169G U176A], the reverse-splicing fitness was 0.0101. As for GUGCCUUGCGCCGGGAAACCACGCAAGGGAUGGUGUCAAAUUCGGCGAAACCUAAGCGCCCGCCCGGGCGUAUGGCAACGCGGAGCCAAGCUUCGGCGCCUGCGCCGAUGUAGGUGUAGCGACUAGACGGCACCCACCUAAGGCAAACGGUAUGGUGAAGGCAUAGUCUAGGGAGUGGCGAAAGUCACACAAACCGG [C82G A111U A120C C150G C169U], the reverse-splicing fitness is 0.0106.

Take GUGCCUUGCGCCGGGAAACCACGCAAGGGAUGGUGUCAAAUUCGGCGAAACCUAAGCGCCCGCCCGGGCGUAUGGCAACGCUGAGCCAAGCUUCGGCGCCUGCGCCGAUGGAGGUGUAGGGACUAGACGGCACCCACCUAAGGCAAACGGUAUGGUGAAGGCAUAGUCCAGGGAGUGGCGAAAGUCACACAAACCGG [C82U A111G A120G C150G]: the reverse-splicing fitness stood at 0.00676.

With GUGCCUUGCGCCGGGAAACCACGCAAGGGAUGGUGUCAAAUUCGGCGAAACCUAAGCGCCCGCCCGGGCGUAUGGCAACGCAGAGCCAAGCUUCGGCGCCUGCGCCGAUGUAGGUGUAGGGACUAGACGGCACCCACCUAAGGCUAACGCUAUGGUGAAGGCAUAGUCAAGGGAGUGGCGAAAGUCACACAAACCGG [C82A A111U A120G A145U C169A], the reverse-splicing fitness was determined as 0.00877.
